The results in this text go back to patent US11510965B2, “Vesicles comprising epidermal growth factor and compositions thereof” (Centro de Ingeniería Genética y Biotecnología, priority 2012, dated 2022).

The test system of this experiment is acute lung injury induced by LPS-zymosan. As to the kind of experiment: Lethal model of acute lung injury (ALI) / ARDS in rats (LPS-zymosan). In kind it is in vivo, Sprague Dawley rats. On the procedure:
Male Sprague Dawley rats with body weight between 250 and 280 grams were used. Lung injury was induced under general anesthesia (ketamine/xylazine) by intratracheal instillation of a combination of lipopolysaccharide (LPS)-zymosan. Immediately afterwards, the animals were randomly assigned to three experimental groups of 12 animals each.
The animals were allowed to evolve without any treatment until the onset of the first symptoms.
Therefore, treatments were begun approximately 8 hours after the toxins were instilled. The experiment was aimed at evaluating the effect of treatment with both EGF formulations solely on the acute phase of ARDS. The treatments were performed by orofacial mask adapted from a volatile anesthesia machine. Treatments were performed twice daily. The animals were also treated once a day with hydrocortisone acetate (10 mg/kg) as coadjuvant treatment.
After 72 hours of treatment onset, the study was stopped. Surviving animals were anesthetized and subjected to deep bronchoalveolar lavage in 5 ml of sterile saline for cytological and biochemical study, as well as arterial blood sampling for determination of blood gas parameters. Then the lungs were insufflated with 10 ml of 10% neutral formalin and processed for histology.

The mark [1] stands for this setting: arterial blood, survivors at 72 hours.
Setting [2] is: bronchoalveolar lavage, survivors at 72 hours.

B1: EGF in physiological saline: spray of EGF (Epidermal Growth Factor) in physiological saline at 25 μg/ml/kg (protein, UniProt P01133 23-1207, looked up)
Pro-epidermal growth factor: PQHWSCPEGTLAGNGNSTCVGPAPFLIFSHGNSIFRIDTEGTNYEQLVVDAGVSVIMDFHYNEKRIYWVDLERQLLQRVFLNGSRQERVCNIEKNVSGMAINWINEEVIWSNQQEGIITVTDMKGNNSHILLSALKYPANVAVDPVERFIFWSSEVAGSLYRADLDGVGVKALLETSEKITAVSLDVLDKRLFWIQYNREGSNSLICSCDYDGGSVHISKHPTQHNLFAMSLFGDRIFYSTWKMKTIWIANKHTGKDMVRINLHSSFVPLGELKVVHPLAQPKAEDDTWEPEQKLCKLRKGNCSSTVCGQDLQSHLCMCAEGYALSRDRKYCEDVNECAFWNHGCTLGCKNTPGSYYCTCPVGFVLLPDGKRCHQLVSCPRNVSECSHDCVLTSEGPLCFCPEGSVLERDGKTCSGCSSPDNGGCSQLCVPLSPVSWECDCFPGYDLQLDEKSCAASGPQPFLLFANSQDIRHMHFDGTDYGTLLSQQMGMVYALDHDPVENKIYFAHTALKWIERANMDGSQRERLIEEGVDVPEGLAVDWIGRRFYWTDRGKSLIGRSDLNGKRSKIITKENISQPRGIAVHPMAKRLFWTDTGINPRIESSSLQGLGRLVIASSDLIWPSGITIDFLTDKLYWCDAKQSVIEMANLDGSKRRRLTQNDVGHPFAVAVFEDYVWFSDWAMPSVMRVNKRTGKDRVRLQGSMLKPSSLVVVHPLAKPGADPCLYQNGGCEHICKKRLGTAWCSCREGFMKASDGKTCLALDGHQLLAGGEVDLKNQVTPLDILSKTRVSEDNITESQHMLVAEIMVSDQDDCAPVGCSMYARCISEGEDATCQCLKGFAGDGKLCSDIDECEMGVPVCPPASSKCINTEGGYVCRCSEGYQGDGIHCLDIDECQLGEHSCGENASCTNTEGGYTCMCAGRLSEPGLICPDSTPPPHLREDDHHYSVRNSDSECPLSHDGYCLHDGVCMYIEALDKYACNCVVGYIGERCQYRDLKWWELRHAGHGQQQKVIVVAVCVVVLVMLLLLSLWGAHYYRTQKLLSKNPKNPYEESSRDVRSRRPADTEDGMSSCPQPWFVVIKEHQDLKNGGQPVAGEDGQAADGSMQPTSWRQEPQLCGMGTEQGCWIPVSSDKGSCPQVMERSFHMPSYGTQTLEGGVEKPHSLLSANPLWQQRALDPPHQMELTQ
modifications: Pro-epidermal growth factor
notes: spray of EGF (Epidermal Growth Factor) in physiological saline at 25 μg/ml/kg
Consider B1, for which, under “12 animals per group, 72 hours”, the Death total is given as 5 and the “Death total (percent)” value is given as “(41.6%)”. The “Mortality (deaths) 48 hours” value (12 animals per group, EGF 25 μg/ml, orofacial mask twice daily) is recorded as 5. Moreover, under setting [1], the “Arterial pH” value is 7.12 ± 0.1 and the Arterial saturation came to 76 ± 8.3. For the same molecule, under setting [2], the “Inflammatory cells per ml” value is 2.2 × 10^3, the “Red blood cells per ml” value was 5.0 × 10^2 and the “Total phospholipids per g of lung tissue” value turned out to be 0.000241 g.
